No end group written: not given here.
T1: GDF15 (Homo sapiens, UniProt Q99988)
T1 construct: purchased Abcam
T1 sequence (Q99988 197-308 limits assumed): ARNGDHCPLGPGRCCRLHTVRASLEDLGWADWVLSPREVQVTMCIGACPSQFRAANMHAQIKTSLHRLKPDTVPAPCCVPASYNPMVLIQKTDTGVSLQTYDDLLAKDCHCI

T2: QRFPR (Homo sapiens, UniProt Q96P65)
T2 construct: endogenous in cells
T2 sequence (Q96P65 1-431): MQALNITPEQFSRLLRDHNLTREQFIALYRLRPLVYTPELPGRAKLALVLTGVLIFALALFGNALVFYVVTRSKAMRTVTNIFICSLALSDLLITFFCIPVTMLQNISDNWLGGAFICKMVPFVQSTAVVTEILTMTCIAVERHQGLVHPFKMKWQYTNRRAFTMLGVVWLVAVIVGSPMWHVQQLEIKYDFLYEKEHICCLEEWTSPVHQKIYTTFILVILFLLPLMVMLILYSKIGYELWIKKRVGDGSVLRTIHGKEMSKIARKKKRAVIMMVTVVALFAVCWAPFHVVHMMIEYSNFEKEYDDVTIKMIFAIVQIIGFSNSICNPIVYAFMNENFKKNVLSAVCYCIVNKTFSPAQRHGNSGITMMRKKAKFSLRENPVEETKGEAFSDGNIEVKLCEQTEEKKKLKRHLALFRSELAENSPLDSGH

T3: Growth and differentiation factor 15 (GDF15) (UniProt Q99988 197-308, limits assumed)
T3 construct: Purchased GDF15 added to cells, pull-downs, peptide arrays and ELISA; also called MIC1
T3 sequence (looked up): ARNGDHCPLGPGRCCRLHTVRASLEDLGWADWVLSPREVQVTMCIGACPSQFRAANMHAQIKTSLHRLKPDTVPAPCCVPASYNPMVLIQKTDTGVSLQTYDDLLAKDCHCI


Columns and labels:
[1] = target: T1, GDF15; assay: Pull down of GDF15 by Fc fusion proteins with stringent washes; format: binding; conditions: 20 μg Fc fusion protein, 0.5 μg GDF15, protein-G bead, FIG. 27
Method: 20 μg Fc fusion protein constructs were incubated with 0.5 μg GDF15 and protein-G bead with mixing for 6 hrs in +4 C in PBST+1% BSAs. Wash 6 times: 3 times PBST, change tubes, 2 washes PBST+220 mM NaCl. Last wash PBS. The beads were collected using a table-top centrifuge set at 500 g for 5 minutes between washes. Detection The material was loaded on a 4-12% gradient gel, run at 100 volt, transferred to PVDF membrane using a Turbo Tank blot system, blocked by PBS with 3% BSA 1 hr RT, and incubated with RD systems a monoclonal anti-GDF15 antibody overnight. A secondary antibody: mouse HRP 1:2000 was used for detection. The size of band was estimated by comparing with a seeblue2 protein ladder marker run in an adjacent lane.
The fragments from the receptors were selected based on previous results including array data indicating direct interaction with GDF15. In the array, the interaction is between a peptide monomer and the ligand.

[2] = target: T1, GDF15; assay: ELISA of GDF15 binding to immobilised biotinylated CLPTM1 derived peptides; conditions: for binding of GDF15 to immobilised polypeptide: cut-off approximately greater than or equal to 0.1 OD
Method: (§1) Biotinylated synthetic peptide fragments from CLPTM1 (JPT peptides, Germany) were immobilized in a streptavidin 96 well plate (#15500 Pierce) at 1 μM in PBS over night at +4° C. Plate was washed 4 times in 300 μl PBS with 0.05% Tween-20 (wash buffer). The plate was blocked with PBS 1% BSA and 0.05% Tween-20 (blocking buffer) for 1.5 hours at room temperature then washed 4 times in wash buffer. GDF15 ligand (Abcam) was added in blocking buffer at 100 ng/ml at incubated at room temperature for 2 hours. The plate was then washed 8 times 300 μl in wash buffer with 2× NaCl. A GDF15 antibody as added at 1 ug/ml (RnD systems goat polyclonal) and incubated in block buffer for 1 hour at room temperature followed by washing with 4×300 μl wash buffer. HAF017 anti-goat-HRP antibody was added and incubated for 1 hour in blocking buffer followed by a wash. TMB substrate was added and stopped after 15 minutes with H2SO4. OD 450-620 was measured in an ELISA reader.
Polypeptides having sequences set forth in SEQ ID NOs:250-273 were assessed for binding to GDF15 (corresponding to the polypeptides indicated from left to right in FIG. 31). These proteins were synthesised with a C-terminal glycine residue not present in the corresponding sequences from CLPTM1. A cut-off of approximately greater than or equal to 0.1 OD in the ELISA readout was identified as indicating binding of the GDF15 to an immobilised polypeptide (i.e. including the 0.098 OD value for GDF15 binding to the polypeptide having the sequence set forth in SEQ ID NO:258).

[3] = target: T2, QRFPR; assay: ACTRIIB assay: in situ PLA detection of ACTRIIB at the cell surface after QRFPR agonist P518; format: cell-based
Excerpt: A-C) In situ detection of QRFPR at the cell surface. A) Negative control cells with no added GDF15. B) Cells after exposure to GDF15. C) Cells after exposure to GDF15+ synthetic peptide GEKEYDDVTIK derived from extracellular domain 4 of QRFPR. […] D-F) In situ PLA detection of ACTRIIB at the cell surface. D) Control cells with no added P518. E) Cells after exposure to P518. F) Cells after exposure to P518+ synthetic peptide GEKEYDDVTIK derived from extracellular domain 4 of QRFPR in 125 molar excess. The ability of P518 to increase the level of ACTRIIB at the cell surface was not affected by the peptide.
The effect of the QRFPR agonist p518 was measured. In short, p518/QRFP-26 was purchased from Phoenix Peptides, CA and processed according to the manufacturer's instructions. Cells were serum-starved prior to P518 stimulation overnight.
P518 was mixed with either PBS or QRFPR receptor fragment dissolved in PBS prior to stimulation of cells.

[4] = target: T3, Growth and differentiation factor 15 …; assay: ELISA, biotinylated peptide in streptavidin wells, GDF15 at 100 ng/ml
Method: as §1, with “H₂SO₄.” for “H2SO4.”
Polypeptides having sequences set forth in SEQ ID NOs:250-273 were assessed for binding to GDF15 (corresponding to the polypeptides indicated from left to right in FIG. 31). These proteins were synthesised with a C-terminal glycine residue not present in the corresponding sequences from CLPTM1.

Row | Molecule | binding of GDF15 to immobilised polypeptide ([2]; FIG. 31) | binding result [4] | other results
1 | Fc mouse IgG1-GGGGSGGGGSGGGGSQRLEIKYDFLYEKEH ({Fc mouse IgG1}-GGGGSGGGGSGGGGSQRLEIKYDFLYEKEH) [AP5, Fc fusion protein with QRFPR peptide] | – | – | pull down of GDF15 by Fc fusion protein [1]: capable of pulling down GDF15
2 | GDYYPIIYFNDYWNLQKDYYG (listed as Homo sapiens) [SEQ ID NO:270] | showed binding to GDF15 | – | affinity for GDF15 (MIC1) within a panel of 24 CLPTM1 derived peptides [2]: highest affinity
3 | GSIYIHVYFTKSGFHPDPRQG (listed as Homo sapiens) [SEQ ID NO:258] | showed binding to GDF15 | – | OD value in the ELISA readout for GDF15 binding ([2]; peptide immobilised at 1 μM, GDF15 100 ng/ml, OD 450-620, FIG. 31): 0.098 OD
4 | ITINIVDDHTPWVKGSVPPPG (listed as Homo sapiens) [SEQ ID NO:262] | showed binding to GDF15 | – | –
5 | KALYRRLATVHMSRMINKYKG (listed as Homo sapiens) [SEQ ID NO:259] | showed binding to GDF15 | – | –
6 | LDQYVKFDAVSGDYYPIIYFG (listed as Homo sapiens) [SEQ ID NO:263] | showed binding to GDF15 | – | –
7 | QRFP(43-mer): known agonist for QRFPR (QDEGSEATGFLPAAGEKTSGPLGNLAEELNGYSRKKGGFSFRF; ends and bridges not checked; UniProt P83859 91-133, looked up) | – | – | regulation of the levels of ACTRIIB by QRFPR agonists [3]: act in opposite manner to each other
8 | YPINESLASLPLRVSFCPLSG (listed as Homo sapiens) [SEQ ID NO:269] | showed binding to GDF15 | – | –
9 | p518: QRFPR agonist purchased from Phoenix Peptides (TSGPLGNLAEELNGYSRKKGGFSFRF) | – | – | regulation of the levels of ACTRIIB by QRFPR agonists [3]: act in opposite manner to each other; levels of ACTRIIB ([3]; p518 alone, serum-starved cells, overnight stimulation): sufficient to increase levels of ACTRIIB
10 | AAAQEADGARSAVVAAGGGSSGQVTSNGSIGRDPPAETQPQNPPAQPAPNAGGGGSGGGGSGGGGS-Fc mouse IgG1 (protein, control protein, Fc fusion) AAAQEADGARSAVVAAGGGSSGQVTSNGSIGRDPPAETQPQNPPAQPAPNAGGGGSGGGGSGGGGS-{Fc mouse IgG1} | – | – | pull down of GDF15 by Fc fusion protein [1]: did not interact with GDF15
11 | GDYYPIIYFNDYWNLQKDYYG (also: biotinylated, position not given here, Immobilised in streptavidin wells; the entry carries one added C-terminal G; also called (273-292)) [CLPTM1 peptide GDYYPIIYFNDYWNLQKDYYG (SEQ ID NO: 270)] | – | binds | –
12 | YPINESLASLPLRVSFCPLSG (also: biotinylated, position not given here, Immobilised in streptavidin wells; the entry carries one added C-terminal G; also called (292-311)) [CLPTM1 peptide YPINESLASLPLRVSFCPLSG (SEQ ID NO: 269)] | – | binds | –
13 | ITINIVDDHTPWVKGSVPPPG (also: biotinylated, position not given here, Immobilised in streptavidin wells; the entry carries one added C-terminal G; also called (242-260)) [CLPTM1 peptide ITINIVDDHTPWVKGSVPPPG (SEQ ID NO: 262)] | – | binds | –
14 | LDQYVKFDAVSGDYYPIIYFG (also: biotinylated, position not given here, Immobilised in streptavidin wells; the entry carries one added C-terminal G; also called (262-280)) [CLPTM1 peptide LDQYVKFDAVSGDYYPIIYFG (SEQ ID NO: 263)] | – | binds | –
15 | KALYRRLATVHMSRMINKYKG (also: biotinylated, position not given here, Immobilised in streptavidin wells; the entry carries one added C-terminal G; also called (182-201)) [CLPTM1 peptide KALYRRLATVHMSRMINKYKG (SEQ ID NO: 259)] | – | binds | –

— patent publication US20180282403A1, “AGENTS FOR REDUCING THE ACTIVITY OF GDF15” (GENAGON THERAPEUTICS AB, priority 2015, published 2018)
